Test results from publication PMC10825690 (2023).

Target: acetylated bovine serum albumin (AcBSA) (Bos taurus, UniProt P02769)
Assay: microscale thermophoresis

Sequence of acetylated bovine serum albumin (AcBSA) (P02769 25-607): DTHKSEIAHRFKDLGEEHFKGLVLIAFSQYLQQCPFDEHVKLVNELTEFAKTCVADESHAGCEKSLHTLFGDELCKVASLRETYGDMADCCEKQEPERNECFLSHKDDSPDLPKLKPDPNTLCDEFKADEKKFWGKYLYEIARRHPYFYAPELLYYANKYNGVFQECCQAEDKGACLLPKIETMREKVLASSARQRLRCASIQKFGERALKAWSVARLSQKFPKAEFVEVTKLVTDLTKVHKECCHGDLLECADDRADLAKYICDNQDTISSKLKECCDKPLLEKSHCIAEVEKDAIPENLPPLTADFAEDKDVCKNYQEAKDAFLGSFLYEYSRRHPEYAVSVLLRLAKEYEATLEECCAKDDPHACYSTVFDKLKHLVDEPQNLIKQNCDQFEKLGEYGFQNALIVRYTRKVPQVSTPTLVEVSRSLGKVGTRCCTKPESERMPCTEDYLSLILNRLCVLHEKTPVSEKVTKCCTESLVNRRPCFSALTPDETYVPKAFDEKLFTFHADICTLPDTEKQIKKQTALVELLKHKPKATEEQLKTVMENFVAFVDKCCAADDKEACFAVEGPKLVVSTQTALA

Kd: 53 nM
B1: FIBCD1 236-461 (protein)
chain: ATGSRPRDCLDVLLSGQQDDGVYSVFPTHYPAGFQVYCDMRTDGGGWTVFQRREDGSVNFFRGWDAYRDGFGRLTGEHWLGLKRIHALTTQAAYELHVDLEDFENGTAYARYGSFGVGLFSVDPEEDGYPLTVADYSGTAGDSLLKHSGMRFTTKDRDSDHSENNCAAFYRGAWWYRNCHTSNLNGQYLRGAHASYADGVEWSSWTGWQYSLKFSEMKIRPVREDR
modifications: acetylated BSA, RED-NHS labeled FIBCD1, calcium
